The text below walks through data of the supplement of paper PMC9170038.

The series relates to MS2 coat protein. The series is described as follows: apparent KD of MS2 coat protein; higher = weaker reporter binding. The note with it: Eterna round: R107. How it is done:
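RNA-MaP round R107: designed RNA switches with theophylline, tryptophan, arginine or FMN aptamers are transcribed on-chip within common flanks. They are titrated with SNAP-549-labelled MS2 coat protein in RNA-MaP buffer (100 mM Tris pH 7.5, 80 mM KCl, 4 mM MgCl2), without ligand or with the indicated ligand. Median apparent KD per design.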

Where [1] appears, read: input ligand: theophylline 20 uM.
[2] abbreviates: input ligand: theophylline 2 mM.
Where [3] appears, read: input ligand: tryptophan 2.4 mM.

For the sequence “GAGGAAACUCACAUGAGGAUCACCCAUGUACGAGGACCGGUACGGCCGCCACUCGAAACCAUGGGCGGUAGUACAUGGAAACAUG [Design 2 MOD]”, the “apparent KD of MS2 coat protein” value by setting is: (input ligand: arginine 13.2 mM) 34 nM; under setting [1], 65.8 nM; under setting [2], 75.5 nM.

As for “UCGUCCUCCGCAAGGAGGAGGAGUUGCGAUACCAGCACGGUAACGUGCCCUUGGCAGCGCACAUGAGGAUCACCCAUGUGGUGUU [#1 Exclusion - Theophylline A Attempt #13 (HarryS)]”, the “apparent KD of MS2 coat protein” value is, setting by setting: (input ligand: arginine 13.2 mM) 59.3 nM; under setting [1], 425 nM; under setting [3], 188 nM.

On to “GUGGCGAUCACGGCCGCCACUGAGCAGGUCGAGCUUGACAUGAGGAUCACCCAUGUCUGACGAUACAGGACCGGGUGAUCUCCGC [Titiinanon]”, for which the “apparent KD of MS2 coat protein” value (input ligand: arginine 13.2 mM) is 16.5 nM; the “apparent KD of MS2 coat protein” value (input ligand: none) stood at 21.7 nM; the “apparent KD of MS2 coat protein” value under setting [1] was determined as 94.6 nM; the “apparent KD of MS2 coat protein” value under setting [2] turned out to be 149 nM; the “apparent KD of MS2 coat protein” value under setting [3] is 19.7 nM.

As for “UAAAACAUGAGGAUCACCCAUGUAUUUGAUACCAGAGUGAUGAUCCUCCCUUGGCAGCAAAUAACGCAUUGAUUACAAUGCGAAA [Mat - Same State Theophlline A - Mod of Eli - D28]”, the “apparent KD of MS2 coat protein” value by setting is: (input ligand: arginine 13.2 mM) 34.8 nM; under setting [1], 121 nM; under setting [3], 36 nM.

For “CUCUCAUGAACAUGAGGAUCACCCAUGUAACGAGGACCGGUACGGCCGCCACUCGGUCGUGGAAACUAAUCGAGUGAGGUGGGAG [Tryp A Ex t5c]”, the “apparent KD of MS2 coat protein” value runs as follows: (input ligand: arginine 13.2 mM) 26.8 nM; (input ligand: none) 44.4 nM; under setting [1], 85.7 nM; under setting [2], 75.3 nM; under setting [3], 254 nM.

As for “UCCCUACCGUCGGCCGCCACUGGGUCAUACAGUUCGUAACUACAUGAGGAUCACCCAUGUGCAGCCAGGACCGGGACGCGCCUUG [theeternabot_sameState_MS2_Trp_B_16]”, the “apparent KD of MS2 coat protein” value is, setting by setting: (input ligand: arginine 13.2 mM) 30.2 nM; under setting [1], 153 nM; under setting [2], 148 nM.

Regarding “UGUGACAUGAGGAUCACCCAUGUAAGGGAAGGAGCGCCGAAUAAGGCAGGUAGGUCGCCCAAGAUAGAAGAAUAAUAAGAUUGUG [Arginine A Same State; Euphoria Solution]”, the “apparent KD of MS2 coat protein” value runs as follows: (input ligand: arginine 13.2 mM) 20.8 nM; (input ligand: none) 27.1 nM; under setting [1], 39.9 nM; under setting [2], 27.9 nM; under setting [3], 28.3 nM.

For “AACAGGGCUUCCACGAAGCCCUAAGGUGAUACCAGCACAUGUAAGUGCCCUUGGCAGCACGGUACAUGAGGAUCACCCAUGUAGA [Gerara]”, the “apparent KD of MS2 coat protein” value is, setting by setting: (input ligand: arginine 13.2 mM) 19.9 nM; under setting [1], 237 nM; under setting [3], 24.3 nM.

With “GUUUAAAGGUCGGCCGCCACUGUAGGAUGUGUUCUUUCACAUGAGGAUCACCCAUGUUGUUAUUAUAGGACCGGGAUUGUAGGAC [39MS split4]”, the “apparent KD of MS2 coat protein” value is, setting by setting: (input ligand: arginine 13.2 mM) 22.6 nM; (input ligand: none) 41.4 nM; under setting [1], 42.3 nM; under setting [2], 35.5 nM; under setting [3], 31.7 nM.

“CCUAUGCAGUCGGCCGCCACUGAGUCCUCAAUAAUAAAUUAAUAAACAUGAGGAUCACCCAUGUACAGGACCGGGACUGUAUAGG [Ex Tryptophan B 12]”: the “apparent KD of MS2 coat protein” value (input ligand: arginine 13.2 mM) came to 165 nM, the “apparent KD of MS2 coat protein” value under setting [1] turned out to be 324 nM and the “apparent KD of MS2 coat protein” value under setting [2] turned out to be 441 nM.

For “UAAUACCAGGUCAACGUACCAGGUGAUCAACGAGGACCGGUACGGCCGCCACUCGAAACAUGAGGAUCACCCAUGUAAGACCUGG [|T'-M'-Trp-Ms2|_Design 2_ML2]”, the “apparent KD of MS2 coat protein” value reads like this: (input ligand: arginine 13.2 mM) 20.9 nM; (input ligand: none) 134 nM; under setting [1], 185 nM; under setting [2], 141 nM; under setting [3], 61.3 nM.

“UAACAUGAGGAUCACCCAUGUAUAGUCGAUACCAGCUCUGUCUAGAGCCCUUGGCAGCGACACUGGUAUCCAUGGGUGUGGAUAC [(Ms2)-(Theo)-(T)'-(M)'-(M)'']”: the “apparent KD of MS2 coat protein” value (input ligand: arginine 13.2 mM) is 20.1 nM, the “apparent KD of MS2 coat protein” value under setting [1] worked out at 98.4 nM and the “apparent KD of MS2 coat protein” value under setting [3] stood at 103 nM.

Regarding “AUAAAUAUAACCGAUACCAGCCUUAUACAUGAGGAUCACCCAUGUUAUGCUUCCUUUUUUGGCCCUUGGCAGCGGAAAUGGGUAA [AstrosSSTheB#2]”, the “apparent KD of MS2 coat protein” value is, setting by setting: (input ligand: arginine 13.2 mM) 47.6 nM; under setting [1], 65.8 nM; under setting [3], 65.3 nM.

As for “CAUAAUUUAUCCUAUAAAACUAUUAGUGAUACCAGCACCUCAUGAUGCCCUUGGCAGCACUUACAUGAGGAUCACCCAUGUUUUA [JR_NU_SSTheophyA_Sub029]”, the “apparent KD of MS2 coat protein” value (input ligand: arginine 13.2 mM) was 99.6 nM, the “apparent KD of MS2 coat protein” value under setting [1] was determined as 223 nM and the “apparent KD of MS2 coat protein” value under setting [3] was 158 nM.

Turning to “GCGAUGGAGCGAAGGAGCGGCUAAAUGUAUCACAUGAGGAUCACCCAUGUUCCAGGAUGUGGCCAGGUAGGUCGCGCUCCAUCGC [SSAB NP+V+V2 #16]”, the “apparent KD of MS2 coat protein” value runs as follows: (input ligand: arginine 13.2 mM) 233 nM; (input ligand: none) 229 nM; under setting [1], 212 nM; under setting [2], 322 nM; under setting [3], 288 nM.

Turning to “ACAUGAGGAUCACCCAUGUCAUGAGGUUCACGAGGACCGGUACGGCCGCCACUCGACAUGAGGGUCACCCGUGAACGGAACACCC [kpmullin]”, the “apparent KD of MS2 coat protein” value was determined as 14.7 nM (input ligand: arginine 13.2 mM), 23.6 nM under setting [1] and 17.7 nM under setting [2].

In the case of “UUUUUUUUUUACAUGAGGAUCACCCAUGUUCGAGGACCGGUACGGCCGCCACUCGUUUUUGUUGUGGUAGGGUUAGGGUUAGGGU [Turkey Lurky]”, the “apparent KD of MS2 coat protein” value reads like this: (input ligand: arginine 13.2 mM) 19.4 nM; (input ligand: none) 43.5 nM; under setting [1], 92 nM; under setting [2], 44.8 nM; under setting [3], 25.5 nM.

As for “UACAUGAGGAUCACCCAUGUAUGAAUGGAUACCAGCGACAAUGGGCGCCCUUGGCAGCUAGUGGAUGAAGGGUGGGUACAAUACU [Exclusion Theophyline A GF4]”, the “apparent KD of MS2 coat protein” value by setting is: (input ligand: arginine 13.2 mM) 11.4 nM; (input ligand: none) 13.4 nM; under setting [1], 17.7 nM; under setting [2], 13.1 nM; under setting [3], 11.4 nM.
